Results on one molecule are retold here after article PMC4399976 (The Biochemical journal, 2015).

This test deals with wild-type (WT) proMMP-9 trimer (reduction-sensitive homomultimer) (human, UniProt P14780 20-707). Briefly: SPR. (In general: In SPR one partner is held on a chip, and binding of the other changes the refractive index at the surface.)
Sequence of wild-type (WT) proMMP-9 trimer (reduction-sensitive homomultimer) (P14780 20-707): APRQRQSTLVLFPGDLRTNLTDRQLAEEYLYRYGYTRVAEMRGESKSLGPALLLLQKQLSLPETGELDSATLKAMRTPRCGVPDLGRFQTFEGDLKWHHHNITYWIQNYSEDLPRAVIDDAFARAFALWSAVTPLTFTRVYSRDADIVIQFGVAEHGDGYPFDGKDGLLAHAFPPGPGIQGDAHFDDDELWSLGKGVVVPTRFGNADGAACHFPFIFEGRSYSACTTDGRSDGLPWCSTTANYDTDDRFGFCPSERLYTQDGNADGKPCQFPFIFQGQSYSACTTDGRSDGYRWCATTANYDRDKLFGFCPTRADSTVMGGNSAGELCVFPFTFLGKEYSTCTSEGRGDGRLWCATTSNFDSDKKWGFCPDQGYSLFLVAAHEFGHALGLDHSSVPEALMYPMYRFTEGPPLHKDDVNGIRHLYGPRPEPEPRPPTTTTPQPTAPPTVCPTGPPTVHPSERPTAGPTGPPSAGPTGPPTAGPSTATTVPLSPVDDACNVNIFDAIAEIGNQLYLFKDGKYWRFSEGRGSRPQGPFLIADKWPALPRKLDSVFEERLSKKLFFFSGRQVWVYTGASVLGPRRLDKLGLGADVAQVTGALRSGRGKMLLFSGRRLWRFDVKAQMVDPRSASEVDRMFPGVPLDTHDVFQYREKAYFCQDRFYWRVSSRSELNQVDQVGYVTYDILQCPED

B1: tissue inhibitor of metalloproteinases-1 (TIMP-1), recombinant human (natural protein)
chain: not shown
B1: the Kd (commonly the constant that tells how readily two partners part at equilibrium) is 0.4 nM.
